Measurements as given in US20230095167A1 (UNIVERSITEIT MAASTRICHT, published 2023).

Experiments:
[1] = molecular target: T1, recombinant NT-proBMP10 (22-312) (human, UniProt O95393 22-312); assay: SPR Biacore 8K, 37°C, bound analyte per mAb
T1 construct: In-house construct; also called pro-peptide BMP10; BMP10(312)
T1 sequence: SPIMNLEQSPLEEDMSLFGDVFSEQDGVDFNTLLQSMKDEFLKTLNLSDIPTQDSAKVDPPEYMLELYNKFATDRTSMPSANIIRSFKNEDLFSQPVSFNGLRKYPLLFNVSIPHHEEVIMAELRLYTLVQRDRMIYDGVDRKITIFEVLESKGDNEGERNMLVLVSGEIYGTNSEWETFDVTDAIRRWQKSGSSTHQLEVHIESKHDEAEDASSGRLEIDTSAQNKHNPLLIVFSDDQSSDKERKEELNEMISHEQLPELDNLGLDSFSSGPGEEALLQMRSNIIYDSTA

[2] = molecular target: T1, recombinant NT-proBMP10 (22-312); assay: SPR Biacore 8K, 37°C, mAb captured by goat anti-rabbit Fc, BMP10(312) 3.7-300 nM as analyte; apparent, avidity-burdened
Description: (§1) The association phase was monitored for 3 minutes; dissociation phase was monitored for 10 minutes. After each cycle of kinetics determination, the rabbit clones were eluted from the capture system by an injection of 10 mM Glycine pH 2.0 for 1 minute, followed by two consecutive injections of 10 mM Glycine pH 2.25 at 20 μL/min for 1 minute.
(§2) The dissociation rate constant kd was evaluated using a Langmuir 1:1 fit model according to the BIAcore™ evaluation software Insight SW V 2.0 from GE Healthcare. The antigen/antibody complex stability half-life time (minutes) was calculated according to the formula ln(2)/60*kd.

[3] = molecular target: T1, recombinant NT-proBMP10 (22-312); assay: SPR Biacore 8K, 37°C, mAb captured, BMP10(312) as analyte; ln(2)/60*kd
Description: as §1, §2

B1: MAB<BMP10>rRb-3H8 HC3/LC3 (p10qx/p10qy)-IgG(SPA) (antibody, V domains shown)
VH: QSVEESGGRLVTPGTPLTLTCTASGFSLSKYDMSWVRQAPGKGLEWIGAIGGRGVTDYTTWAKGRFTISKTATTVDLKMTSPTTEDTATYFCVRALAGDTLWGPGTLVTVSS
VL: AQVLTQTASPVSAAVGSTVTINCQASQNIYKYNNLAWYQQKPGQPPKRLIYEASKLASGVPSRFSGSGSGTQFTLTISGVQCEDAATYYCQGTFECSSADCFGFGGGTEVVVK
notes: Recombinant rabbit monoclonal IgG; also called clone 3H8; VH-7/VL-7
Q: How did the “MR (Molar Ratio)” value [1] turn out when B1 was run?
A: The value was 1.3.

Q: And the koff [2]?
A: Its koff is 0.00078 s⁻¹.

Q: And the “t/2 diss (complex half-life)” value [3]?
A: The value was 15 min.

B2: MAB<BMP10>rRb-2H8 HC7/LC6 (p10qv/p10qw)-IgG(SPA) (antibody, V domains shown)
VH: QSVEESGGRLVTPGTPLTLTCTASAFSLSRYVMSWVRQAPGKGLEFIGFINASGSTSYASWAKGRFTISKTSTTVDLKMTSLTTEDTATYFCATGNLWGPGTLVTVSS
VL: DIVMTQTPSSVSGPVGGTVTINCQASQNIYSNLAWYQQKPGQPPKLLIYYASTLVSGVPSRFKGSGSGTQFTLTISDLECANAATYYCQSKDGPTSSTYGAFGGGTEVVVR
notes: Recombinant rabbit monoclonal IgG; also called clone 2H8; VH-6/VL-6
Q: B2 was tested. Which “MR (Molar Ratio)” value [1] did it give?
A: Its value is 1.2.

Q: What about the koff [2] of the same binder?
A: Its koff is 0.0003 s⁻¹.

Q: And the “t/2 diss (complex half-life)” value [3]?
A: The value was 38 min.

B3: 11C10 (antibody, V domains shown)
VH: QSLEESGGRLVTPGTALTVTCTVSGIDLSRNLMSWVRQAPGEGLEWIGSINFRNITWYASWAKGRFTISKTSTTVDLRISSPTTEDTATYFCARGVYVNSNGYYSLWGQGTPVTVSS
VL: DIVMTQTPASVEAAVGGTVTINCQASQSVSNLLAWYQQKPGQPPKLLIYGASKLESGVPSRFKGSGSGTQFTLTINDLECDDAATYYCQTYWGGDGTSYLNPFGGGTEVVVK
notes: Rabbit monoclonal IgG; also called clone 11C10; VH-3/VL-3
Q: B3 was tested. Which “MR (Molar Ratio)” value [1] did it give?
A: The value was 1.3.

Q: What about the koff [2] of the same binder?
A: Its koff is 0.00045 s⁻¹.

Q: And the “t/2 diss (complex half-life)” value [3]?
A: Its value is 26 min.

B4: MAB<BMP10>rRb-14C8 HC2/LC3 (p10th/p10ti)-IgG(SPA) (antibody, V domains shown)
VH: QSVEESGGRLVTPGTPLTLTCTASGIDLSRYAMTWVRQAPGKGLEWIGIIGASSGTWYASWAKGRFTIAKTSTTVDLRITSPTTEDTATYFCARDNGDSKDYAFDPWGPGTLVTVSS
VL: IDMTQTPSPVSAAVGDTVTINCQASENIYSFLAWYQQKPGHSPNLLIYFASKLVSGVPSRFKGSGSGTQFTLTISDVQCDDAATYYCQQTYTYSNGDNPFGGGTEVVVK
notes: Recombinant rabbit monoclonal IgG; also called clone 14C8; VH-5/VL-5
Q: How did the “MR (Molar Ratio)” value [1] turn out when B4 was run?
A: Its value is 1.3.

Q: What about the koff [2] of the same binder?
A: Its koff is 0.0012 s⁻¹.

Q: And the “t/2 diss (complex half-life)” value [3]?
A: Its value is 10 min.

B5: MAB<BMP10>rRb-8G5 HC3/LC5 (p10qz/p10ra)-IgG(SPA) (antibody, V domains shown)
VH: QSLEESGGDLVKPGASLTLTCTASGFSFSSSYWICWVRQAPGKGLEWIACIYAGSSDITYYASWAKGRFTVSKTSSPTVTLQMTSLTAADTATYFCARGRYYVDGYADYYPGDFNLWGPGTLVTVSS
VL: DIVMTQTPASVEAAVGGTVTIKCQASQSISSYLAWYQQKSGQPPKLLIYLASTLESGVPSRFKGSGSGTEFTLTISDLECADAATYYCQSYYYSSSSSYGSAFGGGTEVVVK
notes: Recombinant rabbit monoclonal IgG; also called clone 8G5; VH-8/VL-8
Q: For B5, which “MR (Molar Ratio)” value [1] is on record?
A: The value was 1.2.

Q: And the koff [2]?
A: Its koff is 0.0021 s⁻¹.

Q: What about the “t/2 diss (complex half-life)” value [3] of the same binder?
A: Its value is 6 min.

B6: MAB<BMP10>rRb-9E7 HC12/LC7 (p10rw/p10rx)-IgG(SPA) (antibody, V domains shown)
VH: QSLEESGGGLVQPEGSLTLTCIASAFSFSSGYYMCWVRQAPGKGLEWIACIYAGSSGTTYYASWAKGRFTISKASSTTVTLLMTSLTAADTATYFCARGPGASGYRLGLWGPGTLVTVSS
VL: DVVMTQTPASVSEPVGGTVTIKCQASEDIYRLLAWYQQKPGQPPKLLIYDASDLASGVPSRLSGSGSGTEYTLSISDLECADAATYYCQQGYYISGGDSFGGGTEVVVK
notes: Recombinant rabbit monoclonal IgG; also called clone 9E7
Q: For B6, which “MR (Molar Ratio)” value [1] is on record?
A: The value was 1.4.

Q: And the koff [2]?
A: The koff was 0.00054 s⁻¹.

Q: What about the “t/2 diss (complex half-life)” value [3] of the same binder?
A: Its value is 21 min.

B7: MAB<BMP10>rRb-11A5 HC6/LC3.2 (p10se/p10sf)-IgG(SPA) (antibody, V domains shown)
VH: QSVEESGGRLVTPGTPLTLTCTASGFSLSSYAMSWVRQAPGKGLQFIGYISGGGSTYYASWVKGRFTISKTSTTVDLKLTSPTTEDTATYFCARGYPGYISGTWAVGQGTLVTVSS
VL: AVLTQTPSPVSAAVGGTVSISCQSSQSVVNNNRCSWFQQKPGQPPKQLIYSASTLASGVPSRFKGSGSGTQFTLTISDVQCDDAATYYCLGDYVSYGDSAFGGGTEVVVK
notes: Recombinant rabbit monoclonal IgG; also called clone 11A5; VH-2/VL-2
Q: What does the source list for B7?
A: MR (Molar Ratio) [1]: 1.4; koff [2]: 0.00039 s⁻¹; t/2 diss (complex half-life) [3]: 30 min

B8: MAB<BMP10>rRb-13G6 (p10tf/p10tg)-IgG(SPA) (antibody, V domains shown)
VH: QSLEESGGRLVTPGTPLTLTCTVSGFSLSNYAMSWVRQAPGMGLEYIGYISASGNTYYASWVKGRFTISKTSTTVDLKMTSPTTEDTATYFCARGYSGWISGTWAVGQGTLVTVSS
VL: AVLTQTPSPVSAAVGGTVNIGCQSSQSVVNNNRLSWFQQRPGQPPKQLIYRASTLASGVPSRFKGSGSGTQFTLTISDVQCDDAATYYCLGDYVSYSEAAFGGGTEVVVK
notes: Recombinant rabbit monoclonal IgG; also called clone 13G6; VH-4/VL-4
Q: What does the source list for B8?
A: MR (Molar Ratio) [1]: 1.3; koff [2]: < 0.0001 s⁻¹; t/2 diss (complex half-life) [3]: > 115 min
